Measured values as given in patent publication US20170189513A1.
Where no end group is shown, it is not given here.

Biological target: HLA-A*24 (human)
Test: UV-ligand exchange, b2m ELISA

TYTTVPRVAF [… (SEQ ID No 172)]
peptide exchange yield: > 75%

VYPWLGALL [… (SEQ ID No 177)]
peptide exchange yield: > 75%

IFIEVFSHF [… (SEQ ID No 178)]
peptide exchange yield: 50 to 75%

MYDSYWRQF [… (SEQ ID No 179)]
peptide exchange yield: > 75%

IYDDSFIRPVTF [… (SEQ ID No 180)]
peptide exchange yield: 50 to 75%

LYLDIINLF [… (SEQ ID No 181)]
peptide exchange yield: > 75%

IYQLDTASI [… (SEQ ID No 182)]
peptide exchange yield: 50 to 75%

VFTSTARAF [… (SEQ ID No 183)]
peptide exchange yield: 50 to 75%

VFQNFPLLF [… (SEQ ID No 184)]
peptide exchange yield: > 75%

IYKVGAPTI [… (SEQ ID No 185)]
peptide exchange yield: 50 to 75%

IFPQFLYQF [… (SEQ ID No 186)]
peptide exchange yield: > 75%

TYLRDQHFL [… (SEQ ID No 187)]
peptide exchange yield: > 75%

RYFKGLVF [RYFKGLVF (SEQ ID No 188)]
peptide exchange yield: 50 to 75%

WYVNGVNYF [… (SEQ ID No 189)]
peptide exchange yield: 20 to 49%

GFFIFNERF [… (SEQ ID No 190)]
peptide exchange yield: 50 to 75%

VFKASKITF [… (SEQ ID No 191)]
peptide exchange yield: 50 to 75%

SYALLTYMI [… (SEQ ID No 192)]
peptide exchange yield: > 75%

RFHPTPLLL [… (SEQ ID No 193)]
peptide exchange yield: > 75%

EFGSLHLEFL [… (SEQ ID No 194)]
peptide exchange yield: < 20%

LYLDKATLI [… (SEQ ID No 198)]
peptide exchange yield: 50 to 75%

FYSRLLQKF [… (SEQ ID No 203)]
peptide exchange yield: 50 to 75%

VHIPEVYLI [… (SEQ ID No 205)]
peptide exchange yield: 50 to 75%

EYQENFLSF [… (SEQ ID No 206)]
peptide exchange yield: 50 to 75%

TYTQDFNKF [… (SEQ ID No 208)]
peptide exchange yield: 50 to 75%

IYTMIYRNL [… (SEQ ID No 210)]
peptide exchange yield: > 75%

YYLEVGKTLI [… (SEQ ID No 211)]
peptide exchange yield: > 75%

LYLKLWNLI [… (SEQ ID No 214)]
peptide exchange yield: 50 to 75%

YFDKVVTL [YFDKVVTL (SEQ ID No 215)]
peptide exchange yield: 20 to 49%

QYSSVFKSL [… (SEQ ID No 216)]
peptide exchange yield: > 75%

FFPPTRQMGLLF [… (SEQ ID No 217)]
peptide exchange yield: > 75%

EYPLVINTL [… (SEQ ID No 219)]
peptide exchange yield: 50 to 75%

RYSTGLAGNLL [… (SEQ ID No 221)]
peptide exchange yield: 50 to 75%

KYIPYKYVI [… (SEQ ID No 223)]
peptide exchange yield: 50 to 75%

QYLENLEKL [… (SEQ ID No 224)]
peptide exchange yield: 50 to 75%

YYVYIMNHL [… (SEQ ID No 225)]
peptide exchange yield: 50 to 75%

VYRDETGELF [… (SEQ ID No 226)]
peptide exchange yield: 50 to 75%

IFLDYEAGTLSF [… (SEQ ID No 227)]
peptide exchange yield: > 75%

KYTSWYVAL [… (SEQ ID No 228)]
peptide exchange yield: > 75%

KYMVYPQTF [… (SEQ ID No 267)]
peptide exchange yield: > 75%

LYHDIFSRL [… (SEQ ID No 271)]
peptide exchange yield: > 75%

QYLQDAYSF [… (SEQ ID No 272)]
peptide exchange yield: > 75%

TYIKPISKL [… (SEQ ID No 273)]
peptide exchange yield: 50 to 75%

AYLHSHALI [… (SEQ ID No 274)]
peptide exchange yield: > 75%

EYINQGDLHEF [… (SEQ ID No 275)]
peptide exchange yield: 50 to 75%

VYGFQWRHF [… (SEQ ID No 276)]
peptide exchange yield: > 75%

RYISDQLFTNF [… (SEQ ID No 278)]
peptide exchange yield: > 75%

TYIESASEL [… (SEQ ID No 279)]
peptide exchange yield: 50 to 75%

RYPDNLKHLYL [… (SEQ ID No 280)]
peptide exchange yield: > 75%

KFVDSTFYL [… (SEQ ID No 282)]
peptide exchange yield: > 75%

TYGDAGLTYTF [… (SEQ ID No 283)]
peptide exchange yield: 50 to 75%

RYLNKAFHI [… (SEQ ID No 284)]
peptide exchange yield: 50 to 75%

RYPDNLKHL [… (SEQ ID No 286)]
peptide exchange yield: 20 to 49%

VYVSDIQEL [… (SEQ ID No 288)]
peptide exchange yield: 50 to 75%

KYPVEWAKF [… (SEQ ID No 289)]
peptide exchange yield: > 75%

HYSQELSLLYL [… (SEQ ID No 158)]
peptide exchange yield: > 75%

LYNKGFIYL [… (SEQ ID No 159)]
peptide exchange yield: > 75%

VYTLDIPVL [… (SEQ ID No 160)]
peptide exchange yield: > 75%

IYLVSIPEL [… (SEQ ID No 161)]
peptide exchange yield: > 75%

VFTRVSSFL [… (SEQ ID No 162)]
peptide exchange yield: 50 to 75%

DYLKGLASF [… (SEQ ID No 163)]
peptide exchange yield: > 75%

KFSSFSLFF [… (SEQ ID No 164)]
peptide exchange yield: 50 to 75%

DYTTWTALL [… (SEQ ID No 165)]
peptide exchange yield: > 75%

YYVESGKLF [… (SEQ ID No 166)]
peptide exchange yield: > 75%

NYINRILKL [… (SEQ ID No 167)]
peptide exchange yield: > 75%

KYQDILETI [… (SEQ ID No 168)]
peptide exchange yield: > 75%

AYTLIAPNI [… (SEQ ID No 169)]
peptide exchange yield: 50 to 75%

VYEDQVGKF [… (SEQ ID No 170)]
peptide exchange yield: 20 to 49%

LFIPSSKLLFL [… (SEQ ID No 171)]
peptide exchange yield: 50 to 75%

IYSWILDHF [… (SEQ ID No 173)]
peptide exchange yield: > 75%

VYVGGGQIIHL [… (SEQ ID No 174)]
peptide exchange yield: 50 to 75%

YYEVHKELF [… (SEQ ID No 175)]
peptide exchange yield: > 75%

EYNQWFTKL [… (SEQ ID No 176)]
peptide exchange yield: 50 to 75%

TYSVSFPMF [… (SEQ ID No 195)]
peptide exchange yield: > 75%

LYIDRPLPYL [… (SEQ ID No 196)]
peptide exchange yield: 50 to 75%

EYSLFPGQVVI [… (SEQ ID No 197)]
peptide exchange yield: 50 to 75%
